In article PMC11286566:

Legend:
[1] = target: Catcher-Ferritin (Catcher of the isopeptide linkage system, flexible linker, Ferritin NP subunit); assay: SDS-PAGE densitometry of the covalent conjugate; catcher-Ferritin and gE-Tag mixed at a 1:6 molar ratio, 24 h at 4°C; uncoupled gE-Tag removed by SEC (Superdex 200 Increase, 20 mM Tris-HCl, 25% sucrose w/v, pH 7.4); coupling efficiency by densitometry of reduced SDS-PAGE; isopeptide bond between Tag and Catcher
[2] = target: Catcher-AP205 (Catcher of the isopeptide linkage system, flexible linker, bacteriophage AP205 VLP subunit) (bacteriophage AP205); assay: SDS-PAGE densitometry of the covalent conjugate; catcher-AP205 and gE-Tag mixed at a 1:2 molar ratio, 24 h at 22°C, then dialysed into 50 mM glycine, 25 mM sodium citrate, 0.1% Tween 20, pH 6.2; coupling efficiency by densitometry of reduced SDS-PAGE; isopeptide bond between Tag and Catcher

## gE-Tag (extracellular domain of VZV glycoprotein E with a C-terminal Tag of the isopeptide linkage system) (from UniProt P09259 31-544)
[1]
  conjugation efficiency: > 70%
[2]
  conjugation efficiency: > 70%
